Measured values reported in a protein production outcome set (Wang et al. 2014).

test: label from the status in PepcDB records
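Also: failed if final PepcDB status was selected cloned or expressed and not failed if soluble or beyond.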

Sequence | protein production
MARSRVAGSKEAGPKVAGSRSRAAGQGRVGARLADGLRAYRMIAGMWIRSTMAYRASFVMTTFGNFGATALDFVAILLMFSQVDALGGYTLPEIAFLYGVAGIAFGLADLAIGSMDRLGRRVRDGTLDTLLVRPAPVLAQVAADRFALRRLGRITQGLLVFGYAVAALDIAWTPLKVLMVPFMMLSGGAIFAAVFVAGGAFQFVAQDASEVQNSFTYGGQTLLQYPPTVFAADLVRGVTFVVPIAFVNWLPALYVLGRPYPLDLPTWVAFTPPLVAAACCALAGLAWRAGLRSYRSTGS | failed
MARSVVVSAEAVYSHEGEYVGDHVLVDEGLVKSISRGEPHVSVGKRVAVKGFLLPPLVDAHLHMRSLGASFRIVNLKGASSPEEVAKRLAAANSPIAVGRGWNEEEFRPGSRLDRRILDSYLGEKPALAVRICGHVAVANSAFIRESGVDKLFPNLVDRERGLLLEDAVSYAVSVAMKTYNNEELLRDAASALASVGVFGVSSMACSEEEVRALSLIGDALEVRVACYLRRGVEPPPKRAGARWSIVGVKLFADGSLGGRTAYLRRPYISGENEGWRGLKLLSSRDIAEEAVSNSHRGLATAVHAIGDAALDEVLEGFSNAISRGVEPGMLRVEHASLAWPNQIDRLASLRVWTVVQPLFRVSDWWLESRVGSDMLQAAYPFASMLRAGVKLALSTDAPVETYDPAETFKAAVGLCSSRLCRESESLTPRETLKLYTLNSALASGGPVAWLGRLRRGAPALFAVANVDVLNSGRKELEKLKFRGLNLAK | failed
MASASFSAVSSLSYQFRSKEAIFSSKASCFSSTALSGRRVFGSIKAAQVTSHENPRRRTQNVEGDIFVDNTCIDCDTCRWMVPDLFTRVDNMSAVTKQPTCKEERLNALQALLSCPTGSIRTQTPPADIGEAQETFPLVVDKDTLPGVFHCGFHSKKSYGATSYLILHREGNILVDSPRYVEKLAGKIEMKGGVRYMFLTHRDDVADHKKWADRFKSTRILHSDDVEPSTSDVELKLEGSGPWSIYEDVELIHTPGHSEGSVCMFHKSLKALFTGDHVIMTESGLSILEQYNHGSVPLQLENVEKLINLDFNWLIPGHGRRVHFKDGDEKAKNLEALVQKHREKQLVSFSKSGKA | failed
MASEMKFAWLLAPDTYWDEKKTFITAALESGIDHIVDTADSGRIKKLGNLTLISPDEDADIVLVGRDGEGDGTLELPETLEYSRDIEMASELSESGRQVAAYVEIRSKAHEELARRLGRVVDYLILVGEDWKIIPLENIIADLQEEDVKLIAAVADVDEARVALETLEHGTDGVLIEPADISQIKDIAALLENIESETYELKPATITRIEPIGSGDRVCVDTCSIMGIGEGMLVGSYSQGLFLVHSESLESEYVASRPFRVNAGPVQAYVMVPGGRTRYLSELETGDEVIIVDRDGRSRSAIVGRVKIEKRPLMLVEAEYEGMKVRTLLQNAETIRLVNDKGEPVSVSELGEGDRVLVYFDESARHFGMAIKETIIEKLEHHHHHH | not failed
MASFPELPALRRLATLGRSWGLLSDFKYEQTRPDIFYGNLALDTSSLVAALSEDISGAGLNDLKVLDVGGGPGYFAEAFETLGATYFSVEPDVGEMSAAGIDVHGSVRGSGLDLPFLPDSFDVVYSSNVAEHVSAPWELGEEMLRVTRSGGLAILSYTIWLGPFGGHETGLWEHYVGGEFARDRYTKKHGHPPKNVFGESLFNVSCREGLEWGASVGNAELVAAFPRYHPYWVWWMVKVPVLREFAVSNLVLVFKKHLEHHHHHH | failed
MASFSAETNSTDLLSQPWNEPPVILSMVILSLTFLLGLPGNGLVLWVAGLKMQRTVNTIWFLHLTLADLLCCLSLPFSLAHLALQGQWPYGRFLCKLIPSIIVLNMFASVFLLTAISLDRCLVVFKPIWCQNHRNVGMACSICGCIWVVAFVMCIPVFVYREIFTTDNHNRCGYKFGLSSSLDYPDFYGDPLENRSLENIVQPPGEMNDRLDPSSFQTNDHPWTVPTVFQPQTFQRPSADSLPRGSARLTSQNLYSNVFKPADVVSPKIPSGFPIEDHETSPLDNSDAFLSTHLKLFPSASSNSFYESELPQGFQDYYNLGQFTDDDQVPTPLVAITITRLVVGFLLPSVIMIACYSFIVFRMQRGRFAKSQSKTFRVAVVVVAVFLVCWTPYHIFGVLSLLTDPETPLGKTLMSWDHVCIALASANSCFNPFLYALLGKDFRKKARQSIQGILEAAFSEELTRSTHCPSNNVISERNSTTV | failed
MASGKQFMKKPIVWTIAGVDSSGLAGVHADMETFSRLNVRACSVITAVTAQNAHSIIAVEEISRDQVAAQCRALELNLKPDAIKIGMLCSTPICEEIAYFLKGYEGFVVLDPIITSSSGTNLFFPDLQQHKNNLIQLFPYITIITPNRIEAEIILNRSIYSYQDIINAASDLLSLGAKQVLLKGGHVKDNSFSQDYWTDGKESFWIANRRFPETNYRGTGCVLSSALTACLALGYSIKDAIVIAKMYVNRGIRQSIEIDKDASQLYHDGWPEDEADLPYLSPTPFIKPVPSFKKYSMGFYPIVDSSHWLEMLLPLGIKCIQLRIKEASQERLEEEIKRSVHLANQYNAALFINDHWELAIHYGAAGVHLGQEDLEKADVDRINRSGLFLGISTHCYYEVARAHALNPSYVACGPIYETTSKIMPFQAQGIARLERWRKTLRYPLVAIGGITLKNLSDVLKTKIDGVSVISAITKASAPLVAAKQFLTQMNESHNE | failed
MASHVDLLTELQLLEKVPTLERLRAAQKRRAQQLKKWAQYEQDLLHRKRKHERKRSTGGRRKKVSFEASVALLEASLRNDAEEVRYFLKNKVSPDLCNEDGLTALHQCCIDNFEEIVKLLLSHGANVNAKDNELWTPLHAAATCGHINLVKILVQYGADLLAVNSDGNMPYDLCEDEPTLDVIETCMAYQGITQEKINEMRAAPEQKMISDIHCMIAAGQDLDWIDGQGATLLHIAGANGYLRAAELLLDHGVRVDVKDWDGWEPLHAAAFWGQMPMAELLVSHGASLSARTSMDEMPIDLCEEEEFKVLLLELKHKHDVIMKSQLRHKSSLSRRTSSAGSRGKVVRRASLSDRTNLYRKEYEGEAILWQQRSAAEEQRTSTYNGDIRETRTDQENKDPNPRLEKPVLLSEFSTKISRGELDGPVENGLRAPVSTYQYALANGDIWKMHEIPDYSMAYGNPGMADVPPPWSGFKEQSPQTLLELKRQRAAAKLLSHPFLSTHLGSSVARSGEGSSEGKAPLIGGRTSPYSSNGTSVYYTVTSGDPPLLKFKAPMEEMEEKVHGCCRIS | failed
MASILRWFVRAFALALAAQSVCANPRPEVIDTIAATPAGLVAVTEDGTGLWSLVDGSRPAWQARPRAPNARGDMQLEPVAVSPDGRWLAATRGYKDPVIVVRDAATGRAVREIKAPRSGVDGLRFAGDDVLVALYAGRLAAVWEASSGKARGVFELPAAPRQVAASADGRYLAVGQDKQRVTVYDLEGGKSLGNFELGSIASKSHAVPTHDILFMAFAYDGTVVVHHATGYIQRFDPRRAAPAALLGSQDIPLRGVATSLSPDRRVLLTADRPGALTLYRLDQPAPARSALRSALGEVTASAWEAGSRRFAVADNQGRVELWDARKPAGAALEGKHAGAIEQLAFASAGRFLVSSGRDGSIRVRETATGQEAVRLVGLGETGWVSMMPAGYFHSSGLPAEAAINVRIGSDVYGIDNFRERYYRPDILSAALQGRSVRPQRTLADTRPPPQVRADPVPASLAADTYTLVLQLTDQGGGIGDVRVLRNDVAVANHAADAQAAAGSQRRSIPVKLAAGRNEIKVIAFNAENSLSSKPLRLTLDVRATQPEKPVLHAMIVGINEFGEASLNLQYAVNDANAIARELRERTRGLYRDVRIELLTTPQQTSRASLIESLRRYQQLDAGDVFMFYVSTHGAVMGDKPVDQEYFLIPSNAKSPVFAHDAISQHELKRLFSSIPAGKKLLLFDTCFAGALGEALYQPAVERGVAENGAVNVLATAIGSTTLAASAPLEMSYEGYQEHGTFTWVVLQAFRGKAGGGKGNVVLTADLARYVAREVPALARRLQREQNPAVYATGQPFPVVAGR | failed
MASKKKPIDSRVDYSLILPVFFLVLIGLFSVYTATIHDYPSKIMVVMGQQLIWLIMGAAISFVVMLFSTEFLWKITPYLYGLGLILMIFPLIFYSPELVASTGAKNWVSIGSVTLFQPSEFMKISYILILARLTVTFKQKYKEKNLQEDGKLLLWFALLTLPIMILLALQKDLGTAMVFMAILAGLVLIAGISWQIILPVVGAVALIVALFMVVFLIPGGKEFLYHHMGVDTYQINRLSAWLNPFDYAGSIAYQQTQGMISIGSGGLFGKGFNIVELPVPVRESDMIFTVIAENFGFIGGSIVLALYLILIYRMLRVTFASNNLFYTYISTGFIMMILFHIFENIGAAVGILPLTGIPLPFISQGGSSLISNLIGVGLVLSMSYQNSLNQEKATERYFAHIKKESLTS | failed
MASKSVHADITLLLDMEGVIREATLSPTMAAESVDGWLGRRWSDIAGAEGGDKVRRMVEDARRSGISAFRQINQPFPSGVEIPIEFTTMLLGDRTGMIAVGKNMQAVTELHSRLIAAQQAMERDYWRLRELETRYRLVFDAAADAVMIVSAGDMRIVEANRAAVNAISRVERGNDDLAGRDFLAEVAAADRDAVRDMLAQVRQRGTALSVLVHLGRYDRAWMLRGSLMSSERRQVFLLHFTPVTTTPAIDDVDDDAVLRGLIDRIPDGFVALDSEGVVRHANQAFLDLVQIGSKPAAVGRSLGVWMGRPGADLSSLLTLLRRYKTVRLFQTTIRGELGTETEVEVSAVDGEDDQYIGVLMRNVARRLDAADDHDALRQALGPISKQLGRSSLRKLVKNAVSIVEQHYVKEALLRSKGNRTATAELLGLSRQSLYAKLNCYGFDDKGVVASAADGAEGASDDAED | failed
MASLCSARFLPSPSLDILSTKTKISSDSRSLGCSSSRVFAFSSVHRSSSRRNRNQLQVVSMAPEEEKLTRRNPLDFPIEWERPKPGRRPDIFPKFSPMKTPLPPPMPYDPPEEDEEEEEKKEEEEENPDQEEEEQPEKQQ | failed
MASLQLCDGYLLFKPSVSPRFLSQRISHRLIPKASSSPPPSPSPSSSSSSLSFSRRELLYQSAAVSLSLSSIVGPARADEQLSEWERVFLPIDPGVVLLDIAFVPDEPSRGFLLGTRQTLLETKDGGSTWNPRSIPSAEEEDFNYRFNSISFKGKEGWIIGKPAILLYTADAGENWDRIPLSSQLPGDMVFIKATEDKSAEMVTDEGAIYVTSNRGYNWKAAIQETVSATLNRTVSSGISGASYYTGTFSAVNRSPDGRYVAVSSRGNFFLTWEPGQPYWQPHNRAVARRIQNMGWRADGGLWLLVRGGGLYLSKGTGITEEFEEVPVQSRGFGILDVGYRSEEEAWAAGGSGILLRTRNGGKSWNRDKAADNIAANLYAVKFVDDKKGFVLGNDGVLLRYVG | failed
MASLRLPAQLVTRGNLIHHNSSSSSSGRLSWRRSLTPENTIPLFPSSSSSSLNRERSIVVPVTCSAAAVNLAPGTPVRPTSILVVGATGTLGRQIVRRALDEGYDVRCLVRPRPAPADFLRDWGATVVNADLSKPETIPATLVGIHTVIDCATGRPEEPIKTVDWEGKVALIQCAKAMGIQKYVFYSIHNCDKHPEVPLMEIKYCTEKFLQESGLNHITIRLCGFMQGLIGQYAVPILEEKSVWGTDAPTRVAYMDTQDIARLTLIALRNEKINGKLLTFAGPRAWTTQEVITLCERLAGQDANVTTVPVSVLRVTRQLTRFFQWTNDVADRLAFSEVLSSDTVFSAPMTETNSLLGVDQKDMVTLEKYLQDYFSNILKKLKDLKAQSKQSDIYF | failed
MASNEAGRALPKFGEWDVNDPATADGFTVIFSKAGEDKKTGRSSTKTNSQRKQDGDKPAVKKWLCFTFA | not failed
MASNIILFEDIFVVDQLDPDGKKFDKVTRVQATSHNLEMFMHLDVNTEVYPLAVGDKFTLALAPTLNLDGTPDTGYFTPGAKKTLADKYEYIMHGKLYKISERDGKTPKAELYVSFGGLLMLLKGDPAHISHFELDQRLFLLMRKL | failed
